Test system: COI1-JAZ9 interaction
Assay: Quantitative liquid Y2H assays (Beta-Glo, RLU)
Type: cell-based, Arabidopsis
Settings: liquid Y2H, yeast; for JA-Ile-dependent COI1-JAZ9 interaction: 10 or 30 μM JA-Ile; for COR-dependent COI1-JAZ9 interaction: 1 μM COR
Method: Yeast EGY48 strain carrying the p8Op:LacZ reporter plasmid was co-transformed with pGilda:COI1 (or COI1 mutants) and pB42AD:JAZ9 (or other JAZs) (Clontech). Colonies were selected on SD minimal plates (BD Biosciences) supplemented with the—uracil (U)/-tryptophan (W)/-histidine (H) amino acid drop out solution (Clontech). Yeast colonies were cultured overnight in liquid SD-UWH medium, harvested, washed twice in sterile water, and the absorbance (OD600) of the cultures was adjusted to 0.2 in liquid SD galactose/raffinose-UWH medium (BD Biosciences).
For liquid Y2H assays, cultures were supplemented with designated concentrations of JA-Ile (10 or 30 μM), COR (1 μM), or DMSO. After 16-h incubation with ligands, the liquid cultures were processed through the Beta-Glo Assay system (Promega) for detecting the β-galactosidase activity. […] Protein expression in yeast was detected using anti-LexA antibody (1:5,000; Upstate Biotechnology) for detection of COI1 expression from pGilda vector and anti-HA (1:5,000; Roche Life Science) antibody for detection of JAZ9 expression in pB42AD vector.

Row | Molecule | JA-Ile-dependent COI1-JAZ9 interaction | COR-dependent COI1-JAZ9 interaction
1 | COI1A384S: COI1 mutant, alanine 384 substituted with serine (protein, left off: small tags and cut ends, COI1 mutant, alanine 384 substituted with serine) MEDPDIKRCKLSCVATVDDVIEQVMTYITDPKDRDSASLVCRRWFKIDSETREHVTMALCYTATPDRLSRRFPNLRSLKLKGKPRAAMFNLIPENWGGYVTPWVTEISNNLRQLKSVHFRRMIVSDLDLDRLAKARADDLETLKLDKCSGFTTDGLLSIVTHCRKIKTLLMEESSFSEKDGKWLHELAQHNTSLEVLNFYMTEFAKISPKDLETIARNCRSLVSVKVGDFEILELVGFFKAAANLEEFCGGSLNEDIGMPEKYMNLVFPRKLCRLGLSYMGPNEMPILFPFAAQIRKLDLLYALLETEDHCTLIQKCPNLEVLETRNVIGDRGLEVLAQYCKQLKRLRIERGADEQGMEDEEGLVSQRGLIALAQGCQELEYMSVYVSDITNESLESIGTYLKNLCDFRLVLLDREERITDLPLDNGVRSLLIGCKKLRRFAFYLRQGGLTDLGLSYIGQYSPNVRWMLLGYVGESDEGLMEFSRGCPNLQKLEMRGCCFSERAIAAAVTKLPSLRYLWVQGYRASMTGQDLMQMARPYWNIELIPSRRVPEVNQQGEIREMEHPAHILAYYSLAGQRTDCPTTVRVLKEPI | reduced | 
2 | A384C: COI1 substitution mutant at A384 (protein) MEDPDIKRCKLSCVATVDDVIEQVMTYITDPKDRDSASLVCRRWFKIDSETREHVTMALCYTATPDRLSRRFPNLRSLKLKGKPRAAMFNLIPENWGGYVTPWVTEISNNLRQLKSVHFRRMIVSDLDLDRLAKARADDLETLKLDKCSGFTTDGLLSIVTHCRKIKTLLMEESSFSEKDGKWLHELAQHNTSLEVLNFYMTEFAKISPKDLETIARNCRSLVSVKVGDFEILELVGFFKAAANLEEFCGGSLNEDIGMPEKYMNLVFPRKLCRLGLSYMGPNEMPILFPFAAQIRKLDLLYALLETEDHCTLIQKCPNLEVLETRNVIGDRGLEVLAQYCKQLKRLRIERGADEQGMEDEEGLVSQRGLIALAQGCQELEYMCVYVSDITNESLESIGTYLKNLCDFRLVLLDREERITDLPLDNGVRSLLIGCKKLRRFAFYLRQGGLTDLGLSYIGQYSPNVRWMLLGYVGESDEGLMEFSRGCPNLQKLEMRGCCFSERAIAAAVTKLPSLRYLWVQGYRASMTGQDLMQMARPYWNIELIPSRRVPEVNQQGEIREMEHPAHILAYYSLAGQRTDCPTTVRVLKEPI | reduced | reduced
3 | A384D: COI1 substitution mutant at A384 (protein) MEDPDIKRCKLSCVATVDDVIEQVMTYITDPKDRDSASLVCRRWFKIDSETREHVTMALCYTATPDRLSRRFPNLRSLKLKGKPRAAMFNLIPENWGGYVTPWVTEISNNLRQLKSVHFRRMIVSDLDLDRLAKARADDLETLKLDKCSGFTTDGLLSIVTHCRKIKTLLMEESSFSEKDGKWLHELAQHNTSLEVLNFYMTEFAKISPKDLETIARNCRSLVSVKVGDFEILELVGFFKAAANLEEFCGGSLNEDIGMPEKYMNLVFPRKLCRLGLSYMGPNEMPILFPFAAQIRKLDLLYALLETEDHCTLIQKCPNLEVLETRNVIGDRGLEVLAQYCKQLKRLRIERGADEQGMEDEEGLVSQRGLIALAQGCQELEYMDVYVSDITNESLESIGTYLKNLCDFRLVLLDREERITDLPLDNGVRSLLIGCKKLRRFAFYLRQGGLTDLGLSYIGQYSPNVRWMLLGYVGESDEGLMEFSRGCPNLQKLEMRGCCFSERAIAAAVTKLPSLRYLWVQGYRASMTGQDLMQMARPYWNIELIPSRRVPEVNQQGEIREMEHPAHILAYYSLAGQRTDCPTTVRVLKEPI | completely disrupted | completely disrupted
4 | A384G: COI1 substitution mutant at A384 (protein) MEDPDIKRCKLSCVATVDDVIEQVMTYITDPKDRDSASLVCRRWFKIDSETREHVTMALCYTATPDRLSRRFPNLRSLKLKGKPRAAMFNLIPENWGGYVTPWVTEISNNLRQLKSVHFRRMIVSDLDLDRLAKARADDLETLKLDKCSGFTTDGLLSIVTHCRKIKTLLMEESSFSEKDGKWLHELAQHNTSLEVLNFYMTEFAKISPKDLETIARNCRSLVSVKVGDFEILELVGFFKAAANLEEFCGGSLNEDIGMPEKYMNLVFPRKLCRLGLSYMGPNEMPILFPFAAQIRKLDLLYALLETEDHCTLIQKCPNLEVLETRNVIGDRGLEVLAQYCKQLKRLRIERGADEQGMEDEEGLVSQRGLIALAQGCQELEYMGVYVSDITNESLESIGTYLKNLCDFRLVLLDREERITDLPLDNGVRSLLIGCKKLRRFAFYLRQGGLTDLGLSYIGQYSPNVRWMLLGYVGESDEGLMEFSRGCPNLQKLEMRGCCFSERAIAAAVTKLPSLRYLWVQGYRASMTGQDLMQMARPYWNIELIPSRRVPEVNQQGEIREMEHPAHILAYYSLAGQRTDCPTTVRVLKEPI | completely disrupted | completely disrupted
5 | A384L: COI1 substitution mutant at A384 (protein) MEDPDIKRCKLSCVATVDDVIEQVMTYITDPKDRDSASLVCRRWFKIDSETREHVTMALCYTATPDRLSRRFPNLRSLKLKGKPRAAMFNLIPENWGGYVTPWVTEISNNLRQLKSVHFRRMIVSDLDLDRLAKARADDLETLKLDKCSGFTTDGLLSIVTHCRKIKTLLMEESSFSEKDGKWLHELAQHNTSLEVLNFYMTEFAKISPKDLETIARNCRSLVSVKVGDFEILELVGFFKAAANLEEFCGGSLNEDIGMPEKYMNLVFPRKLCRLGLSYMGPNEMPILFPFAAQIRKLDLLYALLETEDHCTLIQKCPNLEVLETRNVIGDRGLEVLAQYCKQLKRLRIERGADEQGMEDEEGLVSQRGLIALAQGCQELEYMLVYVSDITNESLESIGTYLKNLCDFRLVLLDREERITDLPLDNGVRSLLIGCKKLRRFAFYLRQGGLTDLGLSYIGQYSPNVRWMLLGYVGESDEGLMEFSRGCPNLQKLEMRGCCFSERAIAAAVTKLPSLRYLWVQGYRASMTGQDLMQMARPYWNIELIPSRRVPEVNQQGEIREMEHPAHILAYYSLAGQRTDCPTTVRVLKEPI | completely disrupted | completely disrupted
6 | A384N: COI1 substitution mutant at A384 (protein) MEDPDIKRCKLSCVATVDDVIEQVMTYITDPKDRDSASLVCRRWFKIDSETREHVTMALCYTATPDRLSRRFPNLRSLKLKGKPRAAMFNLIPENWGGYVTPWVTEISNNLRQLKSVHFRRMIVSDLDLDRLAKARADDLETLKLDKCSGFTTDGLLSIVTHCRKIKTLLMEESSFSEKDGKWLHELAQHNTSLEVLNFYMTEFAKISPKDLETIARNCRSLVSVKVGDFEILELVGFFKAAANLEEFCGGSLNEDIGMPEKYMNLVFPRKLCRLGLSYMGPNEMPILFPFAAQIRKLDLLYALLETEDHCTLIQKCPNLEVLETRNVIGDRGLEVLAQYCKQLKRLRIERGADEQGMEDEEGLVSQRGLIALAQGCQELEYMNVYVSDITNESLESIGTYLKNLCDFRLVLLDREERITDLPLDNGVRSLLIGCKKLRRFAFYLRQGGLTDLGLSYIGQYSPNVRWMLLGYVGESDEGLMEFSRGCPNLQKLEMRGCCFSERAIAAAVTKLPSLRYLWVQGYRASMTGQDLMQMARPYWNIELIPSRRVPEVNQQGEIREMEHPAHILAYYSLAGQRTDCPTTVRVLKEPI | completely disrupted | completely disrupted
